Among the data in US20220040319A1, “METHODS OF TREATING OCULAR CANCER USING ANTI-MET ANTIBODIES AND BISPECIFIC ANTIGEN BINDING MOLECULES THAT BIND MET” (Regeneron Pharmaceuticals, Inc., priority 2019, published 2022) are Relative Cell Growth (n = 3), NCI-H596 cells in soft agar, 100 ng/mL HGF, two weeks (normalized to control), IC50 (read off the curve); blocking of HGF-induced SRE-luciferase signal in HEK293/SRE-Luc cells and IC50 (read off the curve); blocking of HGF-dependent SRE-driven luciferase signal in HEK293T cells values, retold here.

In test [1] the target is human MET (exon14 skip mutation) on NCI-H596 cells (human) (UniProt P08581). Kind of test: cell-based or functional assay.
Chain of human MET (exon14 skip mutation) on NCI-H596 cells (human) (P08581 25-1390, change not shown): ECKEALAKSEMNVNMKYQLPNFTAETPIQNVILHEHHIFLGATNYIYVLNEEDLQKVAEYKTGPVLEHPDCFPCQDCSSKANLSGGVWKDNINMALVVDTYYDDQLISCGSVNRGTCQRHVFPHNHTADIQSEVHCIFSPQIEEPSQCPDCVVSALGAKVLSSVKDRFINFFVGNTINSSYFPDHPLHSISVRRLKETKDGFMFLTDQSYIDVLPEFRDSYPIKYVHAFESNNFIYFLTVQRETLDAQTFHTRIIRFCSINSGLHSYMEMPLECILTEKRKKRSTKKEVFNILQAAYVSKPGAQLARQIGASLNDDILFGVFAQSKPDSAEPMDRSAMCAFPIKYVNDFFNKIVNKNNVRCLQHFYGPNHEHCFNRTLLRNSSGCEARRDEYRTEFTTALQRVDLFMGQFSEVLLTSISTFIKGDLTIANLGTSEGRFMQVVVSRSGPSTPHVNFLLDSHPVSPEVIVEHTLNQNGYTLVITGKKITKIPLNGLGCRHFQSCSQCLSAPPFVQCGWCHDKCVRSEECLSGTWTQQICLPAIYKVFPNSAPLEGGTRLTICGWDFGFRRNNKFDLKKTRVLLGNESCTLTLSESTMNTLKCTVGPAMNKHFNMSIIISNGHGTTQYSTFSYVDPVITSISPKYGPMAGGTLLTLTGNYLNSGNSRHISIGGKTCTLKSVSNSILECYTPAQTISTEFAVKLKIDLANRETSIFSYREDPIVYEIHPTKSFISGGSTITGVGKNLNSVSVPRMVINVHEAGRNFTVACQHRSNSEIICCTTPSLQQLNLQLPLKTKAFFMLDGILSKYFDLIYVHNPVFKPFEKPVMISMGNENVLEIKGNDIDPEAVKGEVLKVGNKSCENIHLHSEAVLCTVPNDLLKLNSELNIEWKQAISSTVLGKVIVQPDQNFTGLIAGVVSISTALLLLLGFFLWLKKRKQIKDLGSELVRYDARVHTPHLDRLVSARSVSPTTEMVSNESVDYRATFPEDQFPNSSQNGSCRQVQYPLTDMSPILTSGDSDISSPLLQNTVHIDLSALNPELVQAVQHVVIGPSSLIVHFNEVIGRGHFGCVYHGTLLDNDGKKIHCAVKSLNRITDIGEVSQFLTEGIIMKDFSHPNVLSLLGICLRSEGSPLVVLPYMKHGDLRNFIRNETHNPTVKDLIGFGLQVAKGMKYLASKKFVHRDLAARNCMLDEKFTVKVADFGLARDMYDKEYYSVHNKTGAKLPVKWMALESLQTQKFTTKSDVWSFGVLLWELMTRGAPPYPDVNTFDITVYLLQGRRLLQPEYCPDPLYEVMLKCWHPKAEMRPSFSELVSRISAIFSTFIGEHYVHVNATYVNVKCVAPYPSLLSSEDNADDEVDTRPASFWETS
In test [2] the target is MET (c-Met, hepatocyte growth factor receptor) on cells (human) (UniProt P08581).
Chain of MET (c-Met, hepatocyte growth factor receptor) on cells (human) (P08581 25-1390 limits assumed, form in doubt): as the sequence (P08581 25-1390, change not shown) above
Test [3] has the same target. The source holds these as a separate data set.

As to “hepatocyte growth factor (from UniProt P14210 32-728) (ligand)”, the Relative Cell Growth (n = 3), NCI-H596 cells in soft agar, 100 ng/mL HGF, two weeks (normalized to control) in test [1] is 7.88.

On to “monovalent anti-MET antibody (made with the heavy and light chain variable sequences of MetMab)”, for which, in test [2], the IC50 (read off the curve); blocking of HGF-induced SRE-luciferase signal in HEK293/SRE-Luc cells is 0.06 nM. In test [3], this substance came in with an IC50 (read off the curve); blocking of HGF-dependent SRE-driven luciferase signal in HEK293T cells of 0.4 nM.
